Assay [1] addresses recombinant His6-tagged V-ATPase subunit C (Manduca sexta) (UniProt Q9U5N1). Put plainly: SEC; V1 incubated with C-His6, Superose-6 column, 20 mM Tris-HCl, 100 mM NaCl, 10 mM KCl, 2 mM 2-mercaptoethanol, pH 8.0, 0.25 ml/min; fractions on SDS-PAGE with densitometry; apparent stoichiometry.
In assay [2] the target is T1, Manduca sexta V-ATPase subunit B (Manduca sexta (tobacco hornworm), UniProt P31401 1-494).
T1 construct: V-ATPase subunit B, Manduca sexta; 56 kDa on SDS-PAGE; Seen as part of the V1 complex in the cryo-EM reconstruction; also called B subunits; source: endogenous, within V1 purified from Manduca sexta
Put plainly: cryo-EM structure; V1 mixed with recombinant C for 1 h at 4 °C (1:5 V1:C molar ratio), Lacey grids, plunge-frozen; 20 Å reconstruction of V1(+C), homologous crystal structures fitted. Conditions: both partners purified.

T1 sequence (P31401 whole entry): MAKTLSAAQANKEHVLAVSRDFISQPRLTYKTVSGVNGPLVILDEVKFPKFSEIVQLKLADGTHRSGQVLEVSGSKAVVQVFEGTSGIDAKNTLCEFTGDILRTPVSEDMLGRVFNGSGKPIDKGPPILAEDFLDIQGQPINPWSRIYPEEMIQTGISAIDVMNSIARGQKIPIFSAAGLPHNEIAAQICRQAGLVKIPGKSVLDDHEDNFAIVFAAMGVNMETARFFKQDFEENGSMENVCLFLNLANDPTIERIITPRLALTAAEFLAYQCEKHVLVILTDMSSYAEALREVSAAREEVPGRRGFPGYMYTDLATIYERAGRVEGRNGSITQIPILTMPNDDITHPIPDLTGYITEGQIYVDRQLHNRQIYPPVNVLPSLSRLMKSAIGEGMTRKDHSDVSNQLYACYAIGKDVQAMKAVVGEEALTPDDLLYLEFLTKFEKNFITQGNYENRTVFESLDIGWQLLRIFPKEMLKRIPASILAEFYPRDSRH
Chain of recombinant His6-tagged V-ATPase subunit C (Manduca sexta) (Q9U5N1 whole entry): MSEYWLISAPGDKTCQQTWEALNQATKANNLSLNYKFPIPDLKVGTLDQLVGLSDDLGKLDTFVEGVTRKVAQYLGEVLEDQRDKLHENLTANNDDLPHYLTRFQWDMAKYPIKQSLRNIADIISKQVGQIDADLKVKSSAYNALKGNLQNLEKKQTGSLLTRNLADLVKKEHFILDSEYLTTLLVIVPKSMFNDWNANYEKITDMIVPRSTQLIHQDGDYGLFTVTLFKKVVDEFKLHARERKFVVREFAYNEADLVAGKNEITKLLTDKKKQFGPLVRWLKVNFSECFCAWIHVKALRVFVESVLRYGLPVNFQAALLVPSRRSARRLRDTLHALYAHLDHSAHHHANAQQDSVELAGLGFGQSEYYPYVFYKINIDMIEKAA

Regarding “Manduca sexta V-ATPase V1 domain (deactivated, washed with 25% methanol to remove residual subunit C) (complex)”, the stoichiometry N (C per V1 (1 per H, 1 per 3 A)) in assay [1] was found to be 1.

B1: Manduca sexta V-ATPase subunit E (natural protein, Manduca sexta (tobacco hornworm), UniProt P31402 1-226, looked up)
chain: MALSDADVQKQIKHMMAFIEQEANEKAEEIDAKAEEEFNIEKGRLVQQQRLKIMEYYEKKEKQVELQKKIQSSNMLNQARLKVLKVREDHVRNVLDEARKRLAEVPKDIKLYSDLLVTLIVQALFQLVEPTVTLRVRQADKALVESLLGRAQQDYKAKIKKDVVLKIDNENFLPPDTCGGIELIAAKGRIKISNTLESRLELIAQQLLPEIRNALFGRNPNRKFTD
notes: V-ATPase subunit E, Manduca sexta; 26 kDa on SDS-PAGE; Seen as part of the V1 complex in the cryo-EM reconstruction; also called subunit E of the E/G stator filaments S1-S3; source: endogenous, within V1 purified from Manduca sexta
On to B1, for which, in assay [2], the binding result is “binds”.

The values are drawn from article PMC3899036, “Subunit Positioning and Stator Filament Stiffness in Regulation and Power Transmission in the V1 Motor of the Manduca sexta V-ATPase^☆” (Journal of Molecular Biology, 2014).
